Measured values published in US20220177564A1 (Ablynx, published 2022).
Values joined by “and” are separate entries in the source; they are usually repeats but may differ in a detail not shown here. Identical values can stand only once. Each block holds one binder with its values, some of them ahead of it.

Experiments:
hIL13-Fc [1] = target: T1, hIL13-Fc (human, UniProt P35225 25-146); test: competition ELISA; soluble IL-13Rα2 as positive control against coated IL13Rα2
T1 construct: not shown: Fc part and any linker not described

cyno IL-13 [2] = target: T2, cyno IL-13 (cynomolgus monkey, UniProt Q0PW92 21-132); test: cell-based or functional assay
rhesus IL-13 [3] = target: T3, rhesus IL-13 (rhesus monkey, UniProt Q864V6 19-132, limits assumed); test: cell-based or functional assay
human IL-13 [4] = target: T4, human IL-13 (human, UniProt P35225 35-146, limits assumed); test: cell-based or functional assay
cyno TSLP [5] = target: T5, cyno TSLP (cynomolgus monkey, UniProt A0A7N9CAT7 29-159); test: Gyrolab in-solution affinity, 48 h incubation
T5 construct: also called cynomolgus monkey TSLP

cyno IL-13 [6] = target: T2, cyno IL-13; test: Gyrolab in-solution affinity, 48 h incubation
human TSLP [7] = target: T6, human TSLP (human, UniProt Q969D9 29-159); test: Gyrolab in-solution affinity, 48 h incubation
T6 construct: also called hTSLP; hTSP

human IL-13 [8] = target: T4, human IL-13; test: Gyrolab in-solution affinity, 48 h incubation
cyno IL-13 [9] = target: T2, cyno IL-13; test: cell-based or functional assay; remark: listed apart in the source
human IL-13 [10] = target: T4, human IL-13; test: cell-based or functional assay; remark: listed apart in the source
cyno TSLP [11] = target: T5, cyno TSLP; test: Gyrolab in-solution affinity, 72 h incubation
cyno IL-13 [12] = target: T2, cyno IL-13; test: Gyrolab in-solution affinity, 72 h incubation
human TSLP [13] = target: T6, human TSLP; test: Gyrolab in-solution affinity, 72 h incubation
rhesus IL-13 [14] = target: T3, rhesus IL-13; test: Gyrolab in-solution affinity, 72 h incubation
human IL-13 [15] = target: T4, human IL-13; test: Gyrolab in-solution affinity, 72 h incubation
human IL4 = target: T7, human IL4 (human, UniProt P05112 25-153); test: SPR (ProteOn XPR36), cytokine immobilised by amine coupling
T7 construct: also called human 1L4
T7 sequence (looked up): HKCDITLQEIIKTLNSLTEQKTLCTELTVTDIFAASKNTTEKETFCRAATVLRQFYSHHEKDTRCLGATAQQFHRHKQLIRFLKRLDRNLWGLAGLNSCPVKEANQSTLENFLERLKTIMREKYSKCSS

human IL7 = target: T8, human IL7 (human, UniProt P13232 26-177); test: as above
T8 construct: also called 1L7
T8 sequence (looked up): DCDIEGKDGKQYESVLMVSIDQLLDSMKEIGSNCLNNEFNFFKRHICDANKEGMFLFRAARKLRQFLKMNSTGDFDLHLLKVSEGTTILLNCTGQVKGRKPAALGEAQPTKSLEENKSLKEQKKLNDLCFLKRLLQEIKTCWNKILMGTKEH

human TSLP [16] = target: T6, human TSLP; test: cell-based or functional assay
cyno TSLP [17] = target: T5, cyno TSLP; test: cell-based or functional assay
human TSLP [18] = target: T6, human TSLP; test: cell-based or functional assay; remark: listed apart in the source
human serum albumin = target: T9, human serum albumin (human, UniProt P02768 25-609); test: Gyrolab in-solution affinity, 2 h incubation
T9 construct: also called HSA; SA (human)

cyno serum albumin = target: T10, cyno serum albumin (cynomolgus monkey); test: Gyrolab in-solution affinity, 2 h incubation
T10 construct: also called SA (cynomolgus monkey)

mouse serum albumin = target: T11, mouse serum albumin (mouse, UniProt P07724 25-608); test: Gyrolab in-solution affinity, 2 h incubation
T11 construct: also called SA (mouse)

short form of TSLP = short form of TSLP (UniProt Q969D9-2 1-63, limits assumed); test: SPR (ProteOn), short form of TSLP immobilised
human IL-13 [19] = target: T4, human IL-13; test: cell-based or functional assay; remark: listed apart in the source
hIL13-Fc [20] = target: T1, hIL13-Fc; test: SPR (ProteOn XPR36), periplasmic extract over immobilised Fc fusion
cyno IL13-Fc [21] = target: T12, cyno IL13-Fc (cynomolgus monkey, UniProt Q0PW92 11-132); test: as above
T12 construct: not shown: Fc part and any linker not described

hIL13-Fc [22] = target: T1, hIL13-Fc; test: SPR; * measured on hIL-13-Fc (same values as Table 9)
cyno IL13-Fc [23] = target: T12, cyno IL13-Fc; test: SPR (BIAcore T100), cyno IL13-Fc immobilised on CM5; heterogeneous ligand fit, major interaction
hIL13-Fc [24] = target: T1, hIL13-Fc; test: SPR (BIAcore T100), hIL13-Fc immobilised on CM5; heterogeneous ligand fit, major interaction
human IL-13 [25] = target: T4, human IL-13; test: AlphaScreen, purified ISVD; hIL-13 to hIL-13Rα1-hFc
human IL-13 [26] = target: T4, human IL-13; test: AlphaScreen, purified ISVD; hIL-13:hIL-13Rα1:hIL4Rα ternary complex
hIL13-Fc [27] = target: T1, hIL13-Fc; test: competition ELISA; hIL13-Fc to coated IL13Rα2
human TSLP [28] = target: T6, human TSLP; test: AlphaScreen, purified ISVD; hTSLP to hTSLPR
hTSLP-Fc [29] = target: T13, hTSLP-Fc (human, UniProt Q969D9 29-159); test: SPR (ProteOn XPR36), periplasmic extract over immobilised Fc fusion
T13 construct: also called hTSLP-hFc; hTLSP-Fc; not shown: human Fc part and any linker not described

cyno TSLP-Fc [30] = target: T14, cyno TSLP-Fc (cynomolgus monkey, UniProt A0A7N9CAT7 29-159); test: as above
T14 construct: also called cyno TSLP-hFc; not shown: human Fc part and any linker not described

hTSLP-Fc [31] = target: T13, hTSLP-Fc; test: SPR, hTSLP-hFc (same value as Table 10)
cyno TSLP [32] = target: T5, cyno TSLP; test: SPR, cyno TSLP
hTSLP-Fc [33] = target: T13, hTSLP-Fc; test: SPR (BIAcore T100), Fc fusion captured by anti-huIgG
cyno TSLP-Fc [34] = target: T14, cyno TSLP-Fc; test: as above
cyno TSLP-Fc [35] = target: T14, cyno TSLP-Fc; test: SPR, cyno TSLP-hFc (same value as Table 10)
human TSLP [36] = target: T6, human TSLP; test: SPR, hTSLP
human TSLP [37] = target: T6, human TSLP; test: AlphaScreen, purified ISVD; hTSLP:hTSLPR:hIL7Rα ternary complex

IC50 (hIL13-Fc [1]): 7.9 nM
B1: IL13Rα2 (receptor, UniProt Q14627 27-343, looked up)
chain: DTEIKVNPPQDFEIVDPGYLGYLYLQWQPPLSLDHFKECTVEYELKYRNIGSETWKTIITKNLHYKDGFDLNKGIEAKIHTLLPWQCTNGSEVQSSWAETTYWISPQGIPETKVQDMDCVYYNWQYLLCSWKPGIGVLLDTNYNLFYWYEGLDHALQCVDYIKADGQNIGCRFPYLEASDYKDFYICVNGSSENKPIRSSYFTFQLQNIVKPLPPVYLTFTRESSCEIKLKWSIPLGPIPARCFDYEIEIREDDTTLVTATVENETYTLKTTNETRQLCFVVRSKVNIYCSDDGIWSEWSDKQCWEGEDLSKKTLLR
notes: Coated on the plate and also titrated in solution as positive control compound

eotaxin release assay (IC50, pM) (cyno IL-13 [2]): 1040 pM | eotaxin release assay (IC50, pM) (rhesus IL-13 [3]): 713 pM | eotaxin release assay (IC50, pM) (human IL-13 [4]): 194 pM | Kd (cyno TSLP [5]): 0.0559 nM and 0.044 nM | Kd (cyno IL-13 [6]): 3.8 pM and 1.5 pM | Kd (human TSLP [7]): 1.8 pM and 2.3 pM | Kd (human IL-13 [8]): 4.2 pM and 6.3 pM | IC50, SEAP reporter assay (HEK-Blue IL-4/IL-13 cells) (cyno IL-13 [9]): 53.4 pM | IC50, SEAP reporter assay (HEK-Blue IL-4/IL-13 cells) (human IL-13 [10]): 32.8 pM | Kd (cyno TSLP [11]): 0.059 nM | Kd (cyno IL-13 [12]): 3.5 pM | Kd (human TSLP [13]): 1 pM | Kd (rhesus IL-13 [14]): 1.5 pM | Kd (human IL-13 [15]): 4.7 pM | binding result (human IL4): no binding (tested: 1 µM) | binding result (human IL7): no binding (tested: 1 µM) | mean IC50, TSLP-induced CCL17 production in human DCs (human TSLP [16]): 53.3 pM | BaF3 proliferation assay (IC50, pM) (cyno TSLP [17]): 24 pM | BaF3 proliferation assay (IC50, pM) (human TSLP [18]): 7.8 pM | Kd (human serum albumin): 0.119 nM and 0.11 nM and 0.145 nM | Kd (cyno serum albumin): 0.198 nM and 0.133 nM and 0.145 nM | Kd (mouse serum albumin): 1.8 nM | binding result (short form of TSLP): no binding (tested: 500 nM)
B2: F027400161 (other)
chain: DVQLVESGGGVVQPGGSLRLSCAASGRTFSSYRMGWFRQAPGKEREFVAALSGDGYSTYTANSVKGRFTISRDNSKNTVYLQMNSLRPEDTALYYCAAKLQYVSGWSYDYPYWGQGTLVTVSSGGGGSGGGGSGGGGSGGGGSGGGGSGGGGSGGGGSEVQLVESGGGVVQPGGSLRLSCAASGFTFNNYAMKWVRQAPGKGLEWVSSITTGGGSTDYADSVKGRFTISRDNSKNTLYLQMNSLRPEDTALYYCANVPFGYYSEHFSGLSFDYRGQGTLVTVSSGGGGSGGGSEVQLVESGGGVVQPGGSLRLSCAASGSGFGVNILYWYRQAAGIERELIASITSGGITNYVDSVKGRFTISRDNSENTMYLQMNSLRAEDTGLYYCASRNIFDGTTEWGQGTLVTVSSGGGGSGGGSEVQLVESGGGVVQPGGSLRLSCAASGFTFRSFGMSWVRQAPGKGPEWVSSISGSGSDTLYADSVKGRFTISRDNSKNTLYLQMNSLRPEDTALYYCTIGGSLSRSSQGTLVTVSSGGGGSGGGSEVQLVESGGGVVQPGGSLRLSCAASGFTFADYDYDIGWFRQAPGKEREGVSCISNRDGSTYYADSVKGRFTISRDNSKNTVYLQMNSLRPEDTALYYCAVEIHCDDYGVENFDFDPWGQGTLVTVSSA
notes: Pentavalent trispecific ISVD construct (two anti-IL-13 VHHs, two anti-TSLP VHHs, one anti-albumin VHH), Pichia pastoris, purified by Protein A; also called F027100161

IC50, IL-13-induced TF-1 proliferation assay (human IL-13 [19]): 27 nM | koff (hIL13-Fc [20]): 0.0017 s⁻¹ | koff (cyno IL13-Fc [21]): 0.0011 s⁻¹ | Kd (hIL13-Fc [22]): 1100 nM | koff (hIL13-Fc [22]): 0.024 s⁻¹ | kon (hIL13-Fc [22]): 22000 M⁻¹ s⁻¹ | Kd (cyno IL13-Fc [23]): 1900 nM | koff (cyno IL13-Fc [23]): 0.034 s⁻¹ | kon (cyno IL13-Fc [23]): 18000 M⁻¹ s⁻¹ | Kd (hIL13-Fc [24]): 1100 nM | koff (hIL13-Fc [24]): 0.024 s⁻¹ | kon (hIL13-Fc [24]): 22000 M⁻¹ s⁻¹ | IC50 (human IL-13 [25]): 4 nM | IC50 (human IL-13 [26]): 1.7 nM | IC50 (hIL13-Fc [27]): 49 nM
B3: F0107004B02 (VHH)
VHH: EVQLVESGGGLVQAGGSLRLSCAASGRTFSSYRMGWFRQAPGKEREFVAALSGDGYSTYTANSVNSRFTISRDNAKNTVYLQMNSLKPEDTAIYYCAAKLQYVSGWSYDYPYWGQGTLVTVSS
notes: Wild-type anti-IL-13 ISVD; also called F010704B02; F107004B02; not shown: c-myc, His6 tag of the purified protein

IC50 (human TSLP [28]): 0.013 nM | koff (hTSLP-Fc [29]): < 5e-05 s⁻¹ | koff (cyno TSLP-Fc [30]): 0.0018 s⁻¹ | Kd (hTSLP-Fc [31]): 0.035 nM | koff (cyno TSLP [32]): 0.0018 s⁻¹ | Kd (hTSLP-Fc [33]): 0.035 nM | koff (hTSLP-Fc [33]): 0.00042 s⁻¹ | kon (hTSLP-Fc [33]): 1.2e+07 M⁻¹ s⁻¹ | Kd (cyno TSLP-Fc [34]): 1.7 nM | koff (cyno TSLP-Fc [34]): 0.0015 s⁻¹ | kon (cyno TSLP-Fc [34]): 870000 M⁻¹ s⁻¹ | Kd (cyno TSLP-Fc [35]): 1.7 nM | koff (human TSLP [36]): 6.6e-05 s⁻¹ | IC50 (human TSLP [37]): 0.18 nM
B4: F0107529F10 (VHH)
VHH: EVQLVESGGGLVQAGGSLRLSCAASGFTFADYDYDIGWFRQAPGKEREGVSCISNRDGSTYYTDSVKGRFTISSDNAKNTVSLQMNSLKPEDTAVYYCAVEIHCDDYGVENFDFDPWGQGTLVTVSS
notes: Wild-type anti-TSLP ISVD; also called F107529F10; not shown: c-myc, His6 tag of the purified protein
